Data: patent publication US20260265696A1, “HUMAN IPSC DERIVED AMELOBLASTS AND USES THEREOF” (UNIVERSITY OF WASHINGTON, priority 2021, published 2026)

B1: BMP4: bone morphogenic protein-4 (protein, UniProt P12644 293-408, looked up)
Bone morphogenetic protein 4: SPKHHSQRARKKNKNCRRHSLYVDFSDVGWNDWIVAPPGYQAFYCHGDCPFPLADHLNSTNHAIVQTLVNSVNSSIPKACCVPTELSAISMLYLDEYDKVVLKNYQEMVVEGCGCR
B2: FGFR2-binder: computationally designed protein that specifically binds and inhibits the activity of the FGFR2; binding sequence SEQ ID NO. 1 (protein)
chain: MGDRRKEMDKVYRTAYKRITSTPDKEKRKEVVKEATEQLRRIAKDEEEKKKAAYMISFLKTLGLEHHHHHH

Test system: hiPSCs (WTC-11) differentiating to ameloblasts (iAM)
Experiment: AMBN expression (QRT-PCR) in hiPSC-derived ameloblast (iAM) differentiation, day 10 to day 16, factors removed or added
Format: cell-based, human
Procedure: FIGS. 7A-7E: (FIG. 7A) Schematic of the 16-day differentiation protocol produced, which targets the identified signaling pathways utilizing growth factors and small molecules to transition through the ameloblast developmental trajectory. […] Each study was performed in triplicate, with error bars representing SEM. (FIG. 7C) The efficiency of each pathway activated in the differentiation from day 10 to day 16 were assessed by removing each agonist one at a time or adding FGFR2 mini binder to inhibit the FGFR2 pathway. AMBN expression was assessed in QRT-PCR, and each condition was performed in triplicate. Significance was determined by unpaired Student's t-test; ***p<0.001; ****p<0.0001; Graph error bars are the means±SEM.
To dissect which pathways were essential for the differentiation from day 10 to day 16, the process of elimination was used (FIG. 7C). […] It was hypothesized that the cells in culture secrete enough FGF ligands to saturate the receptors, and any exogenous ligands would have minimal effects. To test this hypothesis, a computationally designed protein was used, FGFR2 mini-binder (FGFR-mb), that specifically binds and inhibits the activity of the FGFR2 (Cao et al., 2022). […]
RNA was extracted using Trizol (Life Technologies) according to manufacturer's instructions. RNA samples were treated with Turbo DNase (Thermo Fisher Scientific) and quantified using Nanodrop ND-1000. […]

Molecule | expression of AMBN when the factor is removed (factor removed independently from differentiation day 10 to day 16, compared to when all factors are present) | expression of AMBN on adding FGFR2 mini-binder (50 nM FGFR-mb added at day 14, harvested at day 16)
B1 | significantly reduced to less than half | –
B2 | – | almost totally abolished
